# From publication PMC11750101
# Biological target: RBD-HR/trimer (SARS-CoV-2) (UniProt P0DTC2)
# Assay: SEC
substance,measurement,value
RBD-HR/trimer (from UniProt P0DTC2),stoichiometry N,3
